Laboratory results taken from patent US7351555B2, “Mouse cytokine receptor Zcytor16” (ZymoGenetics, Inc., priority 2001, dated 2008).

Key:
K-562 cells = assay: K-562 cytotoxicity assay (MTT); assay type: cell-based, human; details: 72 h
Description: The K-562 cell line (CRL-243, ATCC) has attained widespread use as a highly sensitive in vitro target for cytotoxicity assays. K-562 blasts are multipotential, hematopoietic malignant cells that spontaneously differentiate into recognizable progenitors of the erythrocytic, granulocytic and monocytic series (Lozzio, B B et al., Proc. Soc. Exp. Biol. Med. 166: 546-550, 1981).
K562 cells were plated at 5,000 cells/well in 96-well tissue culture clusters (Costar) in DMEM phenol-free growth medium (Life Technologies) supplemented with pyruvate and 10% serum (HyClone). Next day, human recombinant IL-TIF (Example 19), BSA control or retinoic acid (known to be cytotoxic to K562 cells) were added. Seventy-two hours later, the vital stain MTT (Sigma, St Louis, Mo.), a widely used indicator of mitochondrial activity and cell growth, was added to the cells at a final concentration of 0.5 mg/ml. […] is converted to a purple formazan derivative by mitochondrial dehydrogenases. Four hours later, converted MMP was solubilized by adding an equal volume of acidic, isopropanol (0.04N HCl in absolute isopropanol) to the wells. Absorbance was measured at 570 nm, with background subtraction at 650 nm. In this experimental setting, absorbance reflects cell viability. Results shown in Table 12 are expressed as % cytotoxicity.

[1] = tested on: BaF3/CRF2-4/zcytor11 cells; assay: Alamar Blue proliferation assay, IL-TIF activity; assay type: cell-based, murine; details: 3 days + Alamar Blue
Description: BaF3/CRF2-4/zcytor11 cells were spun down and washed in the complete media, described in Example 7A above, but without mIL-3 (hereinafter referred to as “mIL-3 free media”). The cells were spun and washed 3 times to ensure the removal of the mIL-3. Cells were then counted in a hemacytometer. Cells were plated in a 96-well format at 5000 cells per well in a volume of 100 μl per well using the mIL-3 free media.
Proliferation of the BaF3/CRF2-4/zcytor11 cells was assessed using IL-TIF-CEE protein diluted with mIL-3 free media to 50, 10, 2, 1, 0.5, 0.25, 0.13, 0.06 ng/ml concentrations. 100 μl of the diluted protein was added to the BaF3/CRF2-4/zcytor11 cells. The total assay volume is 200 μl. The assay plates were incubated at 37° C., 5% CO2 for 3 days at which time Alamar Blue (Accumed, Chicago, Ill.) was added at 20 μl/well. Plates were again incubated at 37° C., 5% CO2 for 24 hours. Alamar Blue gives a fluourometric readout based on number of live cells, and is thus a direct measurement of cell proliferation in comparison to a negative control. […] Plates were read on the Fmax™ plate reader (Molecular Devices Sunnyvale, Calif.) using the SoftMax™ Pro program, at wavelengths 544 (Excitation) and 590 (Emmission). […] The response, as measured, was approximately 15-fold over background at the high end of 50 ng/ml down to a 2-fold induction at the low end of 0.06 ng/ml.

MES 13 cells = assay: IL-TIF activation of SRE/STAT luciferase reporter mini-gene in MES 13 cells; assay type: cell-based, murine; details: 4 h
Description: MES 13 cells (ATCC No. CRL-1927) were plated at 10,000 cells/well in 96-well tissue culture clusters (Costar) in DMEM growth medium (Life Technologies) supplemented with pyruvate and 10% serum (HyClone). Next day, the medium was switched to serum free DMEM medium by substituting 0.1% BSA (Fraction V; Sigma) for serum. This medium also contained the adenoviral construct KZ136 (below) that encodes a luciferase reporter mini-gene driven by SRE and STAT elements, at a 1000:1 multiplicity of infection (m.o.i.), i.e. 1000 adenoviral particles per cell. After allowing 24 h for the incorporation of the adenoviral construct in the cells, the media were changed and replaced with serum-free media. Human recombinant IL-TIF with or without a recombinant Zcytor16-Fc4 fusion was added at the indicated final concentration in the well (as described in Table 11, below). Dilutions of both the IL-TIF and Zcytor16-Fc4 were performed in serum-free medium. 0.1% BSA was added for a basal assay control. 4 h later, cells were lysed and luciferase activity, denoting activation of the reporter gene, was determined in the lysate using an Luciferase Assay System assay kit (Promega) and a Labsystems Luminoskan luminometer (Labsystems, Helsinki, Finland). Activity was expressed as luciferase units (LU) in the lysate.
The construction of the adenoviral KZ136 vector was as follows. The original KZ136 vector is disclosed in Poulsen, L K et al. J. Biol. Chem. 273:6228-6232, 1998. The CMV promoter/enhancer and SV40 pA sequences were removed from pACCMV.pLpA (T. C. Becker et al., […] 43:161-189, 1994.) and replaced with a linker containing Asp718/KpnI and HindIII sites (oligos ZC13252 (SEQ ID NO:26) and ZC13453 (SEQ ID NO:27)). The STAT/SRE driven luciferase reporter cassette was exised from vector KZ136 (Poulsen, L K et al., supra.).) as a Asp718/KpnI-HindIII fragment and inserted into the adapted pAC vector. Recombinant KZ136 Adenovirus was produced by transfection with JM17 Adenovirus into 293 cells as described in T. C. Becker et al. supra.). Plaque purified virus was amplified and used to infect cultured cells at 5-50 pfu/cell 12-48 hours before assay. Luciferase reporter assays were performed as described in 96 well microplates as per Poulsen, L K et al., supra.).

BaF3 wild type cells = assay: Alamar Blue proliferation assay, IL-TIF activity; assay type: cell-based, murine
[2] = tested on: BaF3/mZcytor16-MPL receptor cell line; assay: Proliferation assay with BaF3/mZcytor16-MPL chimera cells; assay type: cell-based, murine; details: in the presence of the correct receptor complex
Description: Using standard methods described herein, cells expressing a BaF3/mZcytor16-MPL chimera (wherein the extracellular domain of the mouse Zcytor16 (e.g., amino acids 24 to 230 of SEQ ID NO:38 or SEQ ID NO:48) is fused in frame to the intracellular signaling domain of the mpl receptor) are tested for proliferative response in the presence of IL-TIF. Such cells serve as a bioassay cell line to measure ligand binding of monomeric or homodimeric mouse Zcytor16 receptors. In addition, BaF3/mZcytor16-MPL chimera cells transfected with an additional heterodimeric cytokine receptor subunit can be assessed for proliferative response in the presence of IL-TIF. […] Transfection of the BaF3/MPL-mZcytor16 cell line with and additional MPL-class II cytokine receptor fusion that signals in the presence of the IL-TIF ligand, such as CRF2-4, determines which heterodimeric cytokine receptor subunits are required for mouse Zcytor16 receptor signaling. Use of MPL-receptor fusions for this purpose alleviates the requirement for the presence of an intracellular signaling domain for the mouse Zcytor16 receptor.
Each independent receptor complex cell line is then assayed in the presence of IL-TIF and proliferation measured using routine methods (e.g., Alamar Blue assay). […]

BaF3/CRF2-4 cells = assay: Alamar Blue proliferation assay, IL-TIF activity; assay type: cell-based, murine

B1: IL-TIF: human IL-TIF polypeptide (SEQ ID NO:15) containing C-terminal GluGlu (EE) tag, purified from BHK cells (protein, listed as Homo sapiens)
chain: MAALQKSVSSFLMGTLATSCLLLLALLVQGGAAAPISSHCRLDKSNFQQPYITNRTFMLAKEASLADNNTDVRLIGEKLFHGVSMSERCYLMKQVLNFTLEEVLFPQSDRFQPYMQEVVPFLARLSNRLSTCHIEGDDLHIQRNVQKLKDTVKKLGESGEIKAIGELDLLFMSLRNACI
modifications: C-terminal EE tag
- % Cytotoxicity (K-562 cells; 100 ng/ml): 16.2%
- % Cytotoxicity (K-562 cells; 300 ng/ml): 32%
- proliferative response (induction) ([1]; IL-TIF-CEE 0.06 ng/ml): ~2 fold
- proliferative response over background ([1]; IL-TIF-CEE 50 ng/ml): approximately 15 fold
- LU w/o zcytoR16 (MES 13 cells; IL-TIF 0.03 ng/ml): 105 ± 3 LU
- LU w/o zcytoR16 (MES 13 cells; IL-TIF 0.3 ng/ml): 108 ± 4 LU
- LU w/o zcytoR16 (MES 13 cells; IL-TIF 3 ng/ml): 134 ± 8 LU
- LU w/o zcytoR16 (MES 13 cells; IL-TIF 30 ng/ml): 188 ± 16 LU
- LU w/o zcytoR16 (MES 13 cells; IL-TIF 300 ng/ml): 258 ± 21 LU
- proliferation in response to IL-TIF-CEE (BaF3 wild type cells): did not proliferate
- increase of proliferation over background [2]: ≥ 5 fold
- proliferation in response to IL-TIF-CEE (BaF3/CRF2-4 cells): did not proliferate
